T1: PUF4 RNA-binding domain (Saccharomyces cerevisiae, UniProt P25339 537-888)
T1 sequence: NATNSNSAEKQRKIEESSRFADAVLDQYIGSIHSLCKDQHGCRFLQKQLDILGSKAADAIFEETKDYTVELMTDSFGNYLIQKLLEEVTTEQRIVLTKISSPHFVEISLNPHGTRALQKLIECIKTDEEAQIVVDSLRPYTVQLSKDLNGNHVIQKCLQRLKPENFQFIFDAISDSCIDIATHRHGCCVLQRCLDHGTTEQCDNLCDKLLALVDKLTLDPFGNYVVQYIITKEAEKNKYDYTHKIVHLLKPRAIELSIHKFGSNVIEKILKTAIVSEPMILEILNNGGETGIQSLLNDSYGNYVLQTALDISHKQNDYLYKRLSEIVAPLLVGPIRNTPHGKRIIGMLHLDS

B1: Ic_S4_P4E.1_K4.1_C4.1_H4.1_A4.1_[T5G]_[A6C]_[T7A]_F4.1_[A9C]_T4.1 (ssRNA)
RNA: UUUGACAACUGAUCGUUCUUUCUUGUAGCAUCUUCUUUCUCGAUCAGUUGUCUUU
B2: Ic_S4_P4E.1_K4.1_C4.1_H4.1_A4.1_[T5C]_[A6G]_[T7A]_F4.1_[T8C]_[A9C]_T4.1 (ssRNA)
RNA: UUUGACAACUGAUCGUUCUUUCUUGUACGACCUUCUUUCUCGAUCAGUUGUCUUU
B3: Ic_S4_P4E.1_K4.1_C4.1_H4.1_A4.1_[T5C]_[A6G]_[T7C]_F4.1_[T8C]_[A9C]_T4.1 (ssRNA)
RNA: UUUGACAACUGAUCGUUCUUUCUUGUACGCCCUUCUUUCUCGAUCAGUUGUCUUU
B4: Ic_S4_P4E.1_K4.1_C4.1_H4.1_A4.1_[T5C]_[A6G]_[T7C]_F4.1_[T8A]_T4.1 (ssRNA)
RNA: UUUGACAACUGAUCGUUCUUUCUUGUACGCAAUUCUUUCUCGAUCAGUUGUCUUU
B5: Ic_S4_P4E.1_K4.1_C4.1_H4.1_A4.1_[T5G]_[A6T]_[T7G]_F4.1_T4.1 (ssRNA)
RNA: UUUGACAACUGAUCGUUCUUUCUUGUAGUGUAUUCUUUCUCGAUCAGUUGUCUUU
B6: Ic_S4_P4E.1_K4.1_C4.1_H4.1_A4.1_[T5C]_[A6G]_[T7G]_F4.1_[T8C]_[A9T]_T4.1 (ssRNA)
RNA: UUUGACAACUGAUCGUUCUUUCUUGUACGGCUUUCUUUCUCGAUCAGUUGUCUUU
B7: Ic_S4_P4E.1_K4.1_C4.1_H4.1_A4.1_[T5G]_[A6T]_F4.1_[T8C]_[A9T]_T4.1 (ssRNA)
RNA: UUUGACAACUGAUCGUUCUUUCUUGUAGUUCUUUCUUUCUCGAUCAGUUGUCUUU
B8: Ic_S4_P4E.1_K4.1_C4.1_H4.1_A4.1_[T5G]_[A6T]_[T7G]_F4.1_[A9C]_T4.1 (ssRNA)
RNA: UUUGACAACUGAUCGUUCUUUCUUGUAGUGUCUUCUUUCUCGAUCAGUUGUCUUU
B9: Ic_S4_P4E.1_K4.1_C4.1_H4.1_A4.1_[T5G]_[A6T]_[T7G]_F4.1_[T8C]_[A9C]_T4.1 (ssRNA)
RNA: UUUGACAACUGAUCGUUCUUUCUUGUAGUGCCUUCUUUCUCGAUCAGUUGUCUUU
B10: Ic_S4_P4E.1_K4.1_C4.1_H4.1_A4.1_[T5C]_[A6G]_[T7C]_F4.1_[T8G]_[A9T]_T4.1 (ssRNA)
RNA: UUUGACAACUGAUCGUUCUUUCUUGUACGCGUUUCUUUCUCGAUCAGUUGUCUUU
B11: Ic_S4_P4E.1_K4.1_C4.1_H4.1_A4.1_[T5G]_[A6T]_[T7A]_F4.1_[T8A]_T4.1 (ssRNA)
RNA: UUUGACAACUGAUCGUUCUUUCUUGUAGUAAAUUCUUUCUCGAUCAGUUGUCUUU
B12: Ic_S4_P4E.1_K4.1_C4.1_H4.1_A4.1_[T5C]_[A6G]_F4.1_[T8A]_[A9C]_T4.1 (ssRNA)
RNA: UUUGACAACUGAUCGUUCUUUCUUGUACGUACUUCUUUCUCGAUCAGUUGUCUUU
B13: Ic_S4_P4E.1_K4.1_C4.1_H4.1_A4.1_[T5G]_[A6T]_F4.1_[A9T]_T4.1 (ssRNA)
RNA: UUUGACAACUGAUCGUUCUUUCUUGUAGUUUUUUCUUUCUCGAUCAGUUGUCUUU
B14: Ic_S4_P4E.1_K4.1_C4.1_H4.1_A4.1_[T5C]_[A6G]_[T7G]_F4.1_[A9C]_T4.1 (ssRNA)
RNA: UUUGACAACUGAUCGUUCUUUCUUGUACGGUCUUCUUUCUCGAUCAGUUGUCUUU
B15: Ic_S4_P4E.1_K4.1_C4.1_H4.1_A4.1_[T5G]_[A6T]_[T7C]_F4.1_[T8C]_[A9G]_T4.1 (ssRNA)
RNA: UUUGACAACUGAUCGUUCUUUCUUGUAGUCCGUUCUUUCUCGAUCAGUUGUCUUU
B16: Ic_S4_P4E.1_K4.1_C4.1_H4.1_A4.1_[T5G]_[A6T]_F4.1_[T8A]_[A9C]_T4.1 (ssRNA)
RNA: UUUGACAACUGAUCGUUCUUUCUUGUAGUUACUUCUUUCUCGAUCAGUUGUCUUU
B17: Ic_S4_P4E.1_K4.1_C4.1_H4.1_A4.1_[T5G]_[A6C]_F4.1_[T8G]_[A9T]_T4.1 (ssRNA)
RNA: UUUGACAACUGAUCGUUCUUUCUUGUAGCUGUUUCUUUCUCGAUCAGUUGUCUUU
B18: Ic_S4_P4E.1_K4.1_C4.1_H4.1_A4.1_[T5G]_[A6T]_[T7C]_F4.1_[A9G]_T4.1 (ssRNA)
RNA: UUUGACAACUGAUCGUUCUUUCUUGUAGUCUGUUCUUUCUCGAUCAGUUGUCUUU
B19: Ic_S4_P4E.1_K4.1_C4.1_H4.1_A4.1_[T5G]_[A6T]_[T7C]_F4.1_[T8C]_[A9T]_T4.1 (ssRNA)
RNA: UUUGACAACUGAUCGUUCUUUCUUGUAGUCCUUUCUUUCUCGAUCAGUUGUCUUU
B20: Ic_S4_P4E.1_K4.1_C4.1_H4.1_A4.1_[T5C]_[A6G]_F4.1_[T8C]_[A9C]_T4.1 (ssRNA)
RNA: UUUGACAACUGAUCGUUCUUUCUUGUACGUCCUUCUUUCUCGAUCAGUUGUCUUU

biological target: T1, PUF4 RNA-binding domain; assay: Mg; RNA-MaP; 20 mM Na-HEPES pH 7.4, 30 mM KOAc, 0.75 mM MgCl2, 0.1% Tween-20, 5% glycerol, 0.1 mg/mL BSA, 2 mM DTT; 25 C; 0.0125-409.6 nM protein; conditions: tags: N-His6-TEV cleaved; C-SNAP kept, Cy3B-labelled; label: tethered on chip by stalled RNA polymerase

| Binder | Kd |
| --- | --- |
| UCUCUUUGCAUAUUAUCUCUU (ssRNA) [Ia_S1_P4E.1_K4.1_C4.1_H4.1_[T3C]_A4.1_F4.1_T4.1] | 76.5 nM |
| UCUCUUUGUUUAUUCUCUCUU (ssRNA) [Ib_S1_P4E.1_K4.1_C4.1_H4.1_[A4T]_A4.1_F4.1_[A9C]_T4.1] | 804 nM |
| UCUCUUUGUCUAUUUUCUCUU (ssRNA) [Ib_S1_P4E.1_K4.1_C4.1_H4.1_[A4C]_A4.1_F4.1_[A9T]_T4.1] | 807 nM |
| UCUCUUUGUGUAUUUUCUCUU (ssRNA) [Ib_S1_P4E.1_K4.1_C4.1_H4.1_[A4G]_A4.1_F4.1_[A9T]_T4.1] | 33.2 nM |
| B1 | 61.1 nM |
| B2 | 994 nM |
| B3 | 142 nM |
| B4 | 657 nM |
| B5 | 12.1 nM |
| B6 | 488 nM |
| B7 | 96 nM |
| B8 | 238 nM |
| B9 | 1240 nM |
| B10 | 400 nM |
| B11 | 445 nM |
| B12 | 316 nM |
| B13 | 55.8 nM |
| B14 | 514 nM |
| B15 | 701 nM |
| B16 | 875 nM |
| B17 | 117 nM |
| B18 | 166 nM |
| B19 | 194 nM |
| B20 | 35 nM |

Reference: article PMC9352680, “A comprehensive thermodynamic model for RNA binding by the Saccharomyces cerevisiae Pumilio protein PUF4”
